The target in series [1] is C-terminal 4×His-tagged PhoExo I (PhoExo I-CHis) (Pyrococcus horikoshii OT3). Description: SEC; gel filtration on Superdex 200 HR 10/30, 10 mM Tris HCl pH 8.0, 200 mM NaCl; size estimated against standard proteins.
Series [2] deals with PhoExo I (native, untagged) (Pyrococcus horikoshii OT3). Put plainly: crystal structure; substrate-free native PhoExo I, three crystal forms (crystals 1-3); sitting-drop vapour diffusion at 20°C; trimer in the asymmetric unit (crystals 1, 2) or by the crystallographic 3-fold axis (crystal 3).
The target of series [3] is PhoExo I-CHis D80N mutant (Pyrococcus horikoshii OT3). Description: crystal structure; PhoExo I-CHis D80N cocrystallised with 7-nt ssDNAs (poly-dA, poly-dC, poly-dT; poly-dT crystal also soaked with 0.1 M MgCl2); 0.1 M MES pH 5.6-5.7, 12-14% PEG6000, 1 M LiCl.
In series [4] the target is T1, PhoExo I-CHis (wild type) (Pyrococcus horikoshii OT3, UniProt A0A060P168 1-229). Put plainly: EMSA; 0.1 mM EDTA, no Mg2+; stronger than for the DNA of same sequence; EMSA: 25 mM Hepes-NaOH pH 7.5, 50 mM NaCl, 0.1 mM EDTA, 0.1 mg/ml BSA, 5 nM probe, 0-1600 nM trimer, 5 min 55 C, then 0.05% glutaraldehyde 10 min at room temperature; 7.5% native PAGE in TBE. The settings on record: protein: recombinant; tags: C-terminal 4xHis; chain copies: 3; label: 5'-32P; single strand. In general terms: Mobility shift assays separate free from complexed probe on a gel.

The target of series [5] is T1, PhoExo I-CHis (wild type). Description: EMSA; 0.1 mM EDTA, no Mg2+; affinity lower than for RNA; EMSA: 25 mM Hepes-NaOH pH 7.5, 50 mM NaCl, 0.1 mM EDTA, 0.1 mg/ml BSA, 5 nM probe, 0-1600 nM trimer, 5 min 55 C, then 0.05% glutaraldehyde 10 min at room temperature; 7.5% native PAGE in TBE. The settings on record: protein: recombinant; tags: C-terminal 4xHis; chain copies: 3; label: 5'-32P; single strand.

In general, stoichiometry N refers to a count of units in the complex or per binding partner.

T1 sequence (A0A060P168 entry or part of it): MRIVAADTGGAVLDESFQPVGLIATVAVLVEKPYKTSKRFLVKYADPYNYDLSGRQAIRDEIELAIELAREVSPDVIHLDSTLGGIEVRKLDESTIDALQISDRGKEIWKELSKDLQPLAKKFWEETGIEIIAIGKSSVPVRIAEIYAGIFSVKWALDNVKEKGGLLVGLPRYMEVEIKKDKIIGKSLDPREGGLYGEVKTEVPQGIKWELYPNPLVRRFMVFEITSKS

Regarding “C-terminal 4×His-tagged PhoExo I (PhoExo I-CHis) (enzyme)”, the stoichiometry N in series [1] is 3.
PhoExo I (native, untagged) (enzyme) had a stoichiometry N in series [2] of 3.
PhoExo I-CHis D80N mutant (enzyme) registered a stoichiometry N in series [3] of 3.
With AGCUAUGACCAUGAUUACGAAUUGCUU (ssRNA) [27-nt RNA], in series [4], the binding result is listed as “binds”.
Turning to AGCTATGACCATGATTACGAATTGCTT (ssDNA) [27-nt DNA], in series [5], the binding result is “binds”.

The values above are taken from paper PMC4538837, “Structural basis for substrate recognition and processive cleavage mechanisms of the trimeric exonuclease PhoExo I”.
